Assay results: PMC12285722, “M6A-dependent RNA condensation underlies FUS autoregulation and can be harnessed for ALS therapy development”

Molecular target: FUS (recombinant, His-tagged) (human, UniProt P35637 1-526)
Assay: EMSA; 250 nM RNA, 0-7.5 uM FUS (Methods: 7.0); EMSA: 50 mM Tris-HCl pH 7.5, 100 mM KCl, 2 mM MgCl2, 100 mM beta-mercaptoethanol, 0.1 mg/ml BSA, 30 min RT, 6% native gel in TBE; CONA: lysate in 1% Triton X-100/PBS, beads washed in 20 mM Hepes pH 7.5, 0.3 M NaCl, 0.01% Triton X-100, 5 mM MgCl2, 2 h RT
Conditions: protein: recombinant; tags: His; label: 5' Cy5; 3' biotin-TEG

Chain of FUS (recombinant, His-tagged) (P35637 whole entry): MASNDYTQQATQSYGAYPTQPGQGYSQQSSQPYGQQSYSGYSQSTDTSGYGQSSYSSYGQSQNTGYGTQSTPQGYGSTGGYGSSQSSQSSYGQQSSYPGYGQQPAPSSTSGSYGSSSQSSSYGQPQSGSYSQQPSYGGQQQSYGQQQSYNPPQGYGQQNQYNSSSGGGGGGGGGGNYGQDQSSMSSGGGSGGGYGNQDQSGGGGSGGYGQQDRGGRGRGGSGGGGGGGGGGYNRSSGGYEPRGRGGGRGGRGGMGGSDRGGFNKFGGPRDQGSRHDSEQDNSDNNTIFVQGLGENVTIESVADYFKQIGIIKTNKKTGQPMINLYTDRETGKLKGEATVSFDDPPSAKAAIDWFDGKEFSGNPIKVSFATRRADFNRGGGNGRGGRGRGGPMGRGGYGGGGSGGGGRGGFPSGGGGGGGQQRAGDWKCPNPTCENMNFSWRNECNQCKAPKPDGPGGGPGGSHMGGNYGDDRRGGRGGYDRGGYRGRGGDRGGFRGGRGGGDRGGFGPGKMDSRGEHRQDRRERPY

B1: 4xDRACH (ssRNA)
RNA: GGACUCGGACUUGGACUCUGGACUUUG
binding result: binds
